Results taken from patent publication EP1728864A1 (dated 2006).

T1: human gp39 (cell-expressed, full length) (human, UniProt P29965 1-261)
T1 sequence (looked up): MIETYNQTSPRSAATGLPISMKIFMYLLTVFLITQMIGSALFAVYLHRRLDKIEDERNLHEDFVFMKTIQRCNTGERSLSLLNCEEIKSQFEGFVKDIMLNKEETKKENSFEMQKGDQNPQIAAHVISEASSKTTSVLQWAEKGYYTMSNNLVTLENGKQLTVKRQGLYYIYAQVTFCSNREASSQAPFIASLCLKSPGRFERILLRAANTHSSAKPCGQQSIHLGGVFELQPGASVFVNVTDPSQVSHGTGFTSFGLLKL

B1: 39-1.106 (antibody, mouse IgG1, V domains shown)
VH: EVKLVESGGGLVKPGGSLKLSCTTSGFTFNNYAMSWVRQTPEKRLEWVASISSGDSTYYFDSVRGRFTISRDNARNILYLQMSSLRSEDTAMYYCARHYDYDSYAMDYWGQGTSVTVS
VL: DIQMTQSPASLSASVGETVTITCRASETIYSYLAWYQQKQGRSPQLLVYNAKTLAEGVPSRFSGSGSGTQFSLKINSLQPEDFGSYYCQHHYNTPLTFGTGTKLELKR
notes: murine IgG1, kappa
B2: 106 sFv-Ig (scFv)
scFv: DIQMTQSPASLSASVGETVTITCRASETIYSYLAWYQQKQGRSPQLLVYNAKTLAEGVPSRFSGSGSGTQFSLKINSLQPEDFGSYYCQHHYNTPLTFGTGTKLELKRGGGGSGGGGSGGGGSEVKLVESGGGLVKPGGSLKLSCTTSGFTFNNYAMSWVRQTPEKRLEWVASISSGDSTYYFDSVRGRFTISRDNARNILYLQMSSLRSEDTAMYYCARHYDYDSYAMDYWGQGTSVTVS
notes: VL-linker-VH-human Ig, monomeric; L6 V kappa leader used for secretion; not shown: hinge-CH2-CH3 of human IgG1
B3: 39-1.7 (antibody, mouse IgG2b, V domains shown)
VH: EVQLQQSGPELVKPGASVKMSCKASGYTFTDYYMKWVKQSHGKSLEWIGNINPNNGDTFFNQKFEGKATLTVDKSSSAAYMQLNSLTSEDSAVKKCARGPGTNYFDYWGQGTTLTVSS
VL: DIVLTQSPVSLAVSLGQRVTISCRASQSVSSSTNSYMHWYQQKPGQPPKLLIKYASNLESGVPARFSGSGSGTDFTLNIHPVEEEDTATYYCQHSWEIPFTFGSGTKLEIRR

Assays:
[1] = target: T1, human gp39 (cell-expressed, full length); assay: cell-based or functional assay
[2] = target: sgp39 mutant E129/A (murine; human); assay: ELISA on captured mutant sgp39
[3] = target: sgp39 mutant F201/A-E202/A (murine; human); assay: ELISA on captured mutant sgp39
[4] = target: sgp39 mutant K143/A (murine; human); assay: ELISA on captured mutant sgp39
[5] = target: sgp39 mutant N180/A (murine; human); assay: ELISA on captured mutant sgp39
[6] = target: sgp39 mutant S131/A-T135/A (murine; human); assay: ELISA on captured mutant sgp39
[7] = target: sgp39 mutant Y145/A (murine; human); assay: ELISA on captured mutant sgp39
[8] = target: T1, human gp39 (cell-expressed, full length); assay: saturation binding of iodinated protein to BMS-10 Jurkat cells
[9] = target: T1, human gp39 (cell-expressed, full length); assay: saturation binding of radiolabeled protein to gp39+ Jurkat cells

IgG synthesis, % of medium only control, 0.94 x10^12 binding sites/ml [1] [%]	IgG synthesis, % of medium only control, 1.88 x10^12 binding sites/ml [1] [%]	IgG synthesis, % of medium only control, 3.76 x10^12 binding sites/ml [1] [%]	IgG synthesis, % of medium only control, 7.53 x10^12 binding sites/ml [1] [%]	IgM synthesis, % of medium only control, 0.94 x10^12 binding sites/ml [1] [%]	IgM synthesis, % of medium only control, 1.88 x10^12 binding sites/ml [1] [%]	IgM synthesis, % of medium only control, 3.76 x10^12 binding sites/ml [1] [%]	IgM synthesis, % of medium only control, 7.53 x10^12 binding sites/ml [1] [%]	% of binding to wild-type sgp39 [2] [%]	% of binding to wild-type sgp39 [3] [%]	% of binding to wild-type sgp39 [4] [%]	% of binding to wild-type sgp39 [5] [%]	% of binding to wild-type sgp39 [6] [%]	% of binding to wild-type sgp39 [7] [%]	Kd [8] [nM]	fold greater affinity than 106 sFv-Ig [9] [fold]	Binder
37	26	24	11	34	27	19	25	130	9	52	144	113	124	0.4	~3	B1
21	10	12	14	19	12	12	12	–	–	–	–	–	–	1.6	–	B2
60	11	17	12	64	29	24	14	70	112	5	93	89	106	–	–	B3
